Test results reported in PMC2853112.

Tests used:
MjNep1 [1] = biological target: T1, MjNep1 (Methanocaldococcus jannaschii, UniProt Q57977 1-205); assay: fluorescence quenching
MjNep1 [2] = biological target: T1, MjNep1; assay: NMR 15N-HSQC titration

T1 sequence (Q57977 whole entry): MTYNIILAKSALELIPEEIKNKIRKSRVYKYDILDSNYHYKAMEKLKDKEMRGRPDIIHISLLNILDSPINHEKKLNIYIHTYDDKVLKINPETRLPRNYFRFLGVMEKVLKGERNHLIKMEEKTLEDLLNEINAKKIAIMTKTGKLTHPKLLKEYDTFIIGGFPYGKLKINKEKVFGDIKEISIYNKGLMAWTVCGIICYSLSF

Row | Binder | Kd (MjNep1 [1]) | Kd (MjNep1 [2])
1 | UCAACGCC (ssRNA, pseudouridine at position 1 (nt 914)) [RNA 12] | 7 ± 2 nM | –
2 | UUCAAC (ssRNA) [RNA 1] | – | > 1000 nM
3 | GGAUUCAAC (ssRNA) [RNA 3] | 1650 ± 380 nM | –
4 | UUCAACGC (ssRNA) [RNA 4] | 77 ± 27 nM | –
5 | UUCAACGCC (ssRNA) [RNA 5] | 8 ± 5 nM | –
6 | GGAUUCAACGCC (ssRNA) [RNA 6] | 7 ± 2 nM | –
7 | UUGGAUUCAACGCCGG (ssRNA) [RNA 7 (complete hairpin loop 35)] | 3 ± 1 nM | –
8 | GAUUCAACGCC (ssRNA, pseudouridine at position 4 (nt 914)) [RNA 8] | 11 ± 4 nM | –
9 | GAUUCAACGCC (ssRNA, pseudouridine at position 3 (nt 913)) [RNA 9] | 2 ± 1 nM | –
